Values quoted from earlier work in PMC6353226.

Experiments:
[1] = target: IGF1R pY1165 (Homo sapiens) (UniProt P08069)
[2] = target: IGF1R pY1161 (Homo sapiens) (UniProt P08069)

Kd [1]: 900 nM
Kd [2]: 900 nM
Substance: YES1 SH2 (from UniProt P07947)
